One assay has as its target T1, human TLR2 (human, UniProt O60603 21-784).
T1 construct: whole, on cells; Expressed on the HEK-Blue hTLR2 reporter cell line; also called hTLR2; Toll-like receptor 2
In words: HEK-Blue hTLR2 cells, NF-κB/AP1 reporter and IL-8 ELISA; binding inferred from activation. For orientation: In an ELISA, binding on a coated surface is turned into a signal by an enzyme label.

Another assay concerns the target T2, human TLR4 (human, UniProt O00206 24-839).
T2 construct: whole, on cells; also called hTLR4; Toll-like receptor 4
The assay can be described thus: HEK-hTLR4 cells, IL-8 ELISA; binding inferred from activation.

T1 sequence (O60603 21-784): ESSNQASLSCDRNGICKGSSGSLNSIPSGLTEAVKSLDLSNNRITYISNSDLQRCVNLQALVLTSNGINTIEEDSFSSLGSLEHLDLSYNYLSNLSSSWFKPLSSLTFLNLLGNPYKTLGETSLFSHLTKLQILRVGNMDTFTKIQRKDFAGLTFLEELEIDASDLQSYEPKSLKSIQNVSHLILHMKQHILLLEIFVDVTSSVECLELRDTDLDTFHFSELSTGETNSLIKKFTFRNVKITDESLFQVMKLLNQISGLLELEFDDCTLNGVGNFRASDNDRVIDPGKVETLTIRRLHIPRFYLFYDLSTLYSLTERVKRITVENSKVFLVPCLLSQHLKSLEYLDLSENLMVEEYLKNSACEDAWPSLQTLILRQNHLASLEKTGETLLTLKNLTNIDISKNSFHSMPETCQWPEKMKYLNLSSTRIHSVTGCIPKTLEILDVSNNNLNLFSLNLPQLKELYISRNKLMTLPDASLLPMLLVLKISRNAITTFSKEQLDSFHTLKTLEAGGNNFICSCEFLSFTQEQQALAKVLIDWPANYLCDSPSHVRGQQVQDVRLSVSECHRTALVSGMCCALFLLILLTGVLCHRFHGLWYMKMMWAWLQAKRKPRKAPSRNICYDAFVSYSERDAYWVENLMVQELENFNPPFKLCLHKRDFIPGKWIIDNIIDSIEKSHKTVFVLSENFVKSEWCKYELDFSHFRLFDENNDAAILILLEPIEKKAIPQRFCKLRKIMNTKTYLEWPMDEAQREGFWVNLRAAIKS
T2 sequence (O00206 24-839): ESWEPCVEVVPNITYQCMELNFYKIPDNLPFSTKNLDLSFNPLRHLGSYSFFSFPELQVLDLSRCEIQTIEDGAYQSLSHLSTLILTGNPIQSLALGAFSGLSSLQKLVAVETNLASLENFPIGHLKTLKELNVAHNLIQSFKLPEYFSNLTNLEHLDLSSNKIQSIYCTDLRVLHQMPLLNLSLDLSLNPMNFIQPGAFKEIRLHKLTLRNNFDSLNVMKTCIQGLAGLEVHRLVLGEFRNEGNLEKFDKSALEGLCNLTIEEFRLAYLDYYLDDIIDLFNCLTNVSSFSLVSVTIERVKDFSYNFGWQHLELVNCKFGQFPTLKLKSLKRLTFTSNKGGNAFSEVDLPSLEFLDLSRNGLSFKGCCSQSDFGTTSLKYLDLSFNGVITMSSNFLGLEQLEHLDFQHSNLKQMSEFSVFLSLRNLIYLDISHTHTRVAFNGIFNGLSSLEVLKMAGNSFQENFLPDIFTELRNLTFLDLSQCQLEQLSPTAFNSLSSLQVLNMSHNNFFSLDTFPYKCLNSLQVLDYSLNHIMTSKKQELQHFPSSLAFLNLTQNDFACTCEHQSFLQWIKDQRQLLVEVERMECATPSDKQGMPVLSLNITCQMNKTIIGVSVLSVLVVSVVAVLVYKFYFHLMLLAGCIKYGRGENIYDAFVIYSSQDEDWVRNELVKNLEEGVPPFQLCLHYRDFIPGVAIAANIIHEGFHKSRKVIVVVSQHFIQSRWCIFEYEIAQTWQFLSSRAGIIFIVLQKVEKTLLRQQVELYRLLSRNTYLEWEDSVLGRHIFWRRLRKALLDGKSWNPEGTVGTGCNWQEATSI

B1: Z13Mad5Anaxa (other)
chain: MHHHHHHKRYKNRVASRKSRAKFKQLLQHYREVAAAKSSENDRLRLLLKESLKISQAVHAAHAEINEAGREVVGVGALKVPRNQDWLGVPRFAKFASFEAQGALANIAVDKANLDVEQLESIINFEKLTEWTGSSTVHEILCKLSLEGDHSTPPSAYGSVKPYTNFDAE
notes: Recombinant fusion protein; 18973 Da; also called fusion protein of cell-penetrating peptide Z13, MAD5 cargo and TLR peptide agonist Anaxa (C-terminal)
As for B1, the binding result with human TLR2 and in the assay with human TLR4 was “binds” each time.

B2: EDAZ13Mad5 (other)
chain: MHHHHHHNIDRPKGLAFTDVDVDSIKIAWESPQGQVSRYRVTYSSPEDGIRELFPAPDGEDDTAELQGLRPGSEYTVSVVALHDDMESQPLIGIQSTKRYKNRVASRKSRAKFKQLLQHYREVAAAKSSENDRLRLLLKESLKISQAVHAAHAEINEAGREVVGVGALKVPRNQDWLGVPRFAKFASFEAQGALANIAVDKANLDVEQLESIINFEKLTEWTGS
notes: Recombinant fusion protein; 25057 Da; also called fusion protein of TLR4 peptide agonist EDA, cell-penetrating peptide Z13 and MAD5 cargo
For B2, the binding result with human TLR4 is reported as “binds”.

B3: AnaxaZ13Mad5 (other)
chain: MHHHHHHSTVHEILCKLSLEGDHSTPPSAYGSVKPYTNFDAEKRYKNRVASRKSRAKFKQLLQHYREVAAAKSSENDRLRLLLKESLKISQAVHAAHAEINEAGREVVGVGALKVPRNQDWLGVPRFAKFASFEAQGALANIAVDKANLDVEQLESIINFEKLTEWTGS
notes: Recombinant fusion protein; 18973 Da; also called AnaxZ13Mad5
Take B3: the binding result with human TLR2 is “binds”.
